# Measurements: patent US20250011428A1 (Novartis, published 2025)
# Substitutions are numbered along the chain they refer to.
# B1: CD3_WT (antibody, human IgG1, lambda)
# heavy: not shown
# light: QAVVTQEPSLTVSPGGTVTLTCRSSTGAVTTSNYANWVQQKPGQAPRGLIGGTNKRAPWTPARFSGSLLGDKAALTLSGAQPEDEAEYFCALWYSNLWVFGGGTKLTVLGQPKAAPSVTLFPPSSEELQANKATLVCLISDFYPGAVTVAWKADSSPVKAGVETTTPSKQSNNKYAASSYLSLTPEQWKSHRSYSCQVTHEGSTVEKTVAPTECS
# notes: hIgG1, no Fc mutation; produced in HEK-293T-17SF; also called parental anti-CD3 IgG1; anti-CD3 monospecific hIgG1
# B2: CD3_6 (antibody, human IgG1, lambda)
# heavy: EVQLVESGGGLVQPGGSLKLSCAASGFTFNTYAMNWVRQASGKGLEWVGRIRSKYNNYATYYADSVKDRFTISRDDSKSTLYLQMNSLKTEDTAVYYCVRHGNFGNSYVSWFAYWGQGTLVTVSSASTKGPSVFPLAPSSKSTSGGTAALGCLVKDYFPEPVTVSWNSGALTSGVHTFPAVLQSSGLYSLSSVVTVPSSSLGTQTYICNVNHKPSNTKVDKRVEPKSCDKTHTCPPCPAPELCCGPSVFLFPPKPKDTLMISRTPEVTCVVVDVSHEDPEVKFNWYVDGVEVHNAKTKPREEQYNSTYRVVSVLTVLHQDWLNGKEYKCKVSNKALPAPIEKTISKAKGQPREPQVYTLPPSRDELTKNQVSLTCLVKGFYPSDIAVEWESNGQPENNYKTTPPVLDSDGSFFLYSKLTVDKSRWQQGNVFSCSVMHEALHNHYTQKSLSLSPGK
# light: B1 light
# notes: hIgG1
# B3: CD3_2_YTE (antibody, human IgG1, lambda)
# heavy: EVQLVESGGGLVQPGGSLKLSCAASGFTFNTYAMNWVRQASGKGLEWVGRIRSKYNNYATYYADSVKDRFTISRDDSKSTLYLQMNSLKTEDTAVYYCVRHGNFGNSYVSWFAYWGQGTLVTVSSASTKGPSVFPLAPSSKSTSGGTAALGCLVKDYFPEPVTVSWNSGALTSGVHTFPAVLQSSGLYSLSSVVTVPSSSLGTQTYICNVNHKPSNTKVDKRVEPKSCDKTHTCPPCPAPELCCHPSVFLFPPKPKDTLYITREPEVTCVVVGLRHEDPEVKFNWYVDGVEVHNAKTKPREEQYCGCYRVVSVLTVLHQDWLNGKEYKCKVSNKALPAPIEKTISKAKGQPREPQVYTLPPSRDELTKNQVSLTCLVKGFYPSDIAVEWESNGQPENNYKTTPPVLDSDGSFFLYSKLTVDKSRWQQGNVFSCSVMHEALHNHYTQKSLSLSPGK
# light: B1 light
# notes: hIgG1
# B4: CD3_8_YTE (antibody, human IgG1, lambda)
# heavy: B3 heavy with C243L, H245G, G273D, L274V, R275S, C305N, G306S, C307T
# light: B1 light
# notes: hIgG1
# B5: CD3_7 (antibody, human IgG1, lambda)
# heavy: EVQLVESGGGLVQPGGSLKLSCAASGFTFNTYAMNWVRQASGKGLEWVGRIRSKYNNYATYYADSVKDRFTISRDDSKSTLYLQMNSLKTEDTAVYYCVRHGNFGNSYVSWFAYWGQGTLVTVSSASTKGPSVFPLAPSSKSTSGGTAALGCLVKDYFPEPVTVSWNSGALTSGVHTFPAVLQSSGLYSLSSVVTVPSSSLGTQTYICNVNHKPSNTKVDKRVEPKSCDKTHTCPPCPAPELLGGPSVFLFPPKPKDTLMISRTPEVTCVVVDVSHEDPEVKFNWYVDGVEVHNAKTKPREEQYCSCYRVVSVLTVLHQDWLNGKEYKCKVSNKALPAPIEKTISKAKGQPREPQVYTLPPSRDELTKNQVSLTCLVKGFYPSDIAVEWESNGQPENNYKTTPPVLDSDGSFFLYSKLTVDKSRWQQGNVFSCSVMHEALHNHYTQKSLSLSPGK
# light: B1 light
# notes: hIgG1
# B6: CD3_11 (antibody, human IgG1, lambda)
# heavy: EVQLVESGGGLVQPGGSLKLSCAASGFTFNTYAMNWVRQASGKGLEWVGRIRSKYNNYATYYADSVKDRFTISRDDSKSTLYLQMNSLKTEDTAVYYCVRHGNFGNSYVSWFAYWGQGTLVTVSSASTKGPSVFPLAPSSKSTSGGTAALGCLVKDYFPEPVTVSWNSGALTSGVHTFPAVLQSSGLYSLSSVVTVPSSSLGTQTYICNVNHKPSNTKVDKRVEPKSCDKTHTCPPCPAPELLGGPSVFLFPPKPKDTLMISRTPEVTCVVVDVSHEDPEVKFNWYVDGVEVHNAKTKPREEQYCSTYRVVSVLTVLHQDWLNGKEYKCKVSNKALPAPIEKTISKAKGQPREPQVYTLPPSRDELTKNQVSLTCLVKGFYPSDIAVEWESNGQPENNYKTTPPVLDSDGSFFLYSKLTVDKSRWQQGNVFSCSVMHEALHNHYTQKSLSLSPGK
# light: B1 light
# notes: hIgG1
# B7: CD3_5 (antibody, human IgG1, lambda)
# heavy: B3 heavy with H245G, Y260M, T262S, E264T, G273D, L274V, R275S, G306S
# light: B1 light
# notes: hIgG1
# B8: CD3_10_YTE (antibody, human IgG1, lambda)
# heavy: B3 heavy with C243L, C244G, H245G, G273D, L274V, R275S, C305N, G306S
# light: B1 light
# notes: hIgG1
# What was measured:
# hC1q [1] = target: T1, hC1q (human, UniProt P02745 23-245; P02746 28-253; P02747 29-245); test: SPR Biacore T200; IgG amine-coupled on CM5, hC1q as analyte; response normalized to parental (=100)
# T1 sequence (P02745 23-245 limits assumed, chain 1 of 3): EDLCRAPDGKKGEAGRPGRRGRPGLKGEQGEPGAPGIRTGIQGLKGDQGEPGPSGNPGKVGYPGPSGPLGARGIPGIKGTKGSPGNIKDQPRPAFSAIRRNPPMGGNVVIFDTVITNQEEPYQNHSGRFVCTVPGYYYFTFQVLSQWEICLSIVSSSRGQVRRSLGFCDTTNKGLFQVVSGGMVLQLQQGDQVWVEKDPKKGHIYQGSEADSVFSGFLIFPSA
# T1 sequence (P02746 28-253 limits assumed, chain 2 of 3): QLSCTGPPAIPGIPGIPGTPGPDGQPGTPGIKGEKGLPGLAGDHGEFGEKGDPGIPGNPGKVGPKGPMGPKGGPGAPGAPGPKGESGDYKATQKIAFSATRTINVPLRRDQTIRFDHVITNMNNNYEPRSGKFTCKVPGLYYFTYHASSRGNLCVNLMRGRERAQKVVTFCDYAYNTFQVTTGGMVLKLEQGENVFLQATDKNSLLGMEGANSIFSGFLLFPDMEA
# T1 sequence (P02747 29-245 limits assumed, chain 3 of 3): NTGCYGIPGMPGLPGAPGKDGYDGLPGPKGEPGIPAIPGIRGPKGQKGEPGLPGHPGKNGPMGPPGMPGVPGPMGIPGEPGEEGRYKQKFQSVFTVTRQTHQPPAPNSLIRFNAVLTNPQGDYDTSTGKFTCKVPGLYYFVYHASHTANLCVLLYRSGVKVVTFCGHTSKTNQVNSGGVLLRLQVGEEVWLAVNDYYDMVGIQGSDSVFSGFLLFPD
# Experimental: (§1) Kinetics and binding capacity were measured on a BIAcore® T200 instrument (GE Healthcare, Glattbrugg, Switzerland) at room temperature, with proteins diluted in running buffer 10 mM NaP, 150 mM NaCl, 0.05% Tween 20, pH7.6. A CM5 sensor chip (Sensor Chip SA, GE Healthcare Life Sciences) was used to immobilized engineered immunoglobulins by amine coupling. Then, recombinant human hFcγR1a, or recombinant human hFcγR3a (F158V), or recombinant human hFcRn, or hC1q was used as the analyte.
# (§2) Binding data were acquired by subsequent injection of analyte dilution series on the reference and measuring flow cells. Zero concentration samples (running buffer only) were included to allow double referencing during data evaluation. For data evaluation, doubled referenced sensorgrams were analyzed and the maximum response reached during the experiment was monitored. Maximum response describes the binding capacity of the surface in terms of the response at saturation. Finally, measured maximum responses were normalized to the one measured using parental immunoglobulin (not engineered).
# [2] = target: T2, recombinant human hFcγR3a (F158V) (human, UniProt P08637 17-208); test: SPR Biacore T200; IgG amine-coupled on CM5, receptor as analyte; response normalized to parental (=100);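 also: measured at room temperature in pH 7.6 phosphate buffer with Tween 20, double-referenced sensorgrams, maximum response taken as binding capacity at saturation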
# T2 construct: also called FcγRIII
# T2 sequence (P08637 17-208 F176V): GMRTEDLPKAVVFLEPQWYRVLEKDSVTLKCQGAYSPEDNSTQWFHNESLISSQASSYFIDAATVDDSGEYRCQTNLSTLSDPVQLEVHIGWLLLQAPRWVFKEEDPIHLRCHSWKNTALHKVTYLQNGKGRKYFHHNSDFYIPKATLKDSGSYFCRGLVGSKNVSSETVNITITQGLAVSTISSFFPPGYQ
# Experimental: as §1, §2
# [3] = target: T3, recombinant human hFcγR1a (human, UniProt P12314 16-288, limits assumed); test: as above
# T3 construct: recombinant, analyte in SPR; also called FcγRI
# T3 sequence (P12314 16-288 limits assumed): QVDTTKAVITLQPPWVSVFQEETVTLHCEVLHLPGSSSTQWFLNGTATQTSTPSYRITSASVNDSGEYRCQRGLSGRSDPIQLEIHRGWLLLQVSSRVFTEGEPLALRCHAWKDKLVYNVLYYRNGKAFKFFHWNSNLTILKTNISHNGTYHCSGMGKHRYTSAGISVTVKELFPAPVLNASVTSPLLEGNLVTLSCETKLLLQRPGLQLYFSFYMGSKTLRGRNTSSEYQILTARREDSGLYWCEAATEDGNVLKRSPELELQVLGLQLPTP
# Experimental: as §1, §2
# hCD3epsilon-FC antigen [4] = target: T4, hCD3epsilon-FC antigen (human, UniProt P07766 23-126); test: SPR Biacore T200; hCD3epsilon-FC amine-coupled on CM5, IgG as analyte; design: unit not given here
# T4 construct: immobilized by amine coupling on CM5; also called human CD3epsilon
# T4 sequence (P07766 23-126 limits assumed): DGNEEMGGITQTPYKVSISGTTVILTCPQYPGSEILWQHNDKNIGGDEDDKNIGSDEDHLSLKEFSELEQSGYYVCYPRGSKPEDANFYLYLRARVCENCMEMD
# recombinant human hFcRn = target: T5, recombinant human hFcRn (human, UniProt P55899 24-297; P61769 21-119); test: SPR Biacore T200; IgG amine-coupled on CM5, hFcRn as analyte; response normalized to parental (=100)
# T5 construct: FcRn is normally a heterodimer with it
# T5 sequence (P55899 24-297 limits assumed, chain 1 of 2): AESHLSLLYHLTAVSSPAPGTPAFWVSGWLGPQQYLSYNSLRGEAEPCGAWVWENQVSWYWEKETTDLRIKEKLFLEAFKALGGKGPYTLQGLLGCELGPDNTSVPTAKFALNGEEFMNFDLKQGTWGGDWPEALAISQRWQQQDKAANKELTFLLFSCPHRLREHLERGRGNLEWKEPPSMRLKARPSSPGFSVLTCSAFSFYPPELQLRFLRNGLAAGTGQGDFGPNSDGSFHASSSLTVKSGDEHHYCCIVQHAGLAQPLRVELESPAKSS
# T5 sequence (P61769 21-119 limits assumed, chain 2 of 2): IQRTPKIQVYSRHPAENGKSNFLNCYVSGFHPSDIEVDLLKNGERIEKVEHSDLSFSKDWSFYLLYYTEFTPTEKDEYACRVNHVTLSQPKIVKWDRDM
# Experimental: as §1, §2
# hCD3epsilon-FC antigen [5] = target: T4, hCD3epsilon-FC antigen; test: SPR Biacore T200; hCD3epsilon-FC amine-coupled on CM5, IgG as analyte; 1:1 model, apparent KD (bivalent analyte)
# Experimental: A CM5 sensor chip (Sensor Chip SA, GE Healthcare Life Sciences) was used to immobilize hCD3epsilon-FC antigen by amine coupling. Then, engineered anti-CD3 hIgG1 were used as the analyte.
# Binding data were acquired by subsequent injection of analyte dilution series on the reference and measuring flow cells. Zero concentration samples (running buffer only) were included to allow double referencing during data evaluation. For data evaluation, doubled referenced sensorgrams were analyzed by applying a 1:1 binding model analysis to generate the equilibrium dissociation constant (KD). Binding constant described Table 7 are considered as apparent KD since immunoglobulins used as analyte are bivalent for the immobilized antigen. In addition, maximum response reached during the experiment was monitored. Maximum response describes the binding capacity of the surface in terms of the response at saturation. Finally, measured maximum responses were normalized to the one measured using parental immunoglobulin (not engineered).
# [6] = target: T2, recombinant human hFcγR3a (F158V); test: SPR max response, normalized to parental (=100)
# Experimental: as §1, §2
# hC1q [7] = target: T1, hC1q; test: SPR max response, normalized to parental (=100)
# Experimental: as §1, §2
Binder,Maximum response at 20 nM hC1q (RU) (hC1q [1]),Maximum response at 300 nM hFcγR3a F158V (RU) [2],Maximum response at 100 nM hFcγR1a (RU) [3],Maximum response at 125 nM hIgG1 (hCD3epsilon-FC antigen [4]),Maximum response at 1840 nM hFcRn (RU) (recombinant human hFcRn),Kd (hCD3epsilon-FC antigen [5]),binding result [6],binding result (hC1q [7])
B1,100 RU,100 RU,100 RU,392,100 RU,2.32 nM,–,–
B2,33 RU,17 RU,13 RU,338,136 RU,2.38 nM,–,–
B3,–,–,3 RU,371,340 RU,2.3 nM,no binding (tested: 300 nM hFcγR3a F158V),–
B4,–,–,2 RU,–,604 RU,–,–,no binding (tested: 20 nM hC1q)
B5,2 RU,5 RU,21 RU,367,80 RU,2.27 nM,–,–
B6,–,–,19 RU,–,92 RU,–,–,no binding (tested: 20 nM hC1q)
B7,–,22 RU,7 RU,365,–,3.76 nM,–,no binding (tested: 20 nM hC1q)
B8,–,–,–,–,280 RU,–,–,no binding (tested: 20 nM hC1q)
